According to US20260139013A1 (VIB VZW, published 2026):

Molecular target: the molecule itself
Assay: cryo-EM structure of the self-assembled fiber (subunit to subunit)

B1: Ena1B-HI-Rubredoxin (other)
chain: MGNCSTNLSCCANGQKTIVQDKVCIDWTAAATAAIIYADNISQDIYASGYLKVDTGTGPVTIVFYSGGVTGTAVETIVVATGSSASFTVRRFDTVTILGGGKYVCTVCGYEYDPAEGDPDNGVKPGTSFDDLPADWVCPVCGAPKSEFEAAGAAETGEFCMTIRYTLS
notes: It was made in E. coli and studied as a self-assembled helical fiber of many identical subunits; The rubredoxin centre carried mostly zinc and some iron; also called Ena-HI-Rubredoxin; Ena1B-Rubredoxin-HI
**Q.** Does B1 bind?
**A.** binds
